Results on 20 sequences are retold here after the DeepSol protein solubility set.

This data set is described as follows: soluble on expression in E. coli; label from the status in PepcDB or PDB records.
Consider “MSFGYLIATSQPCELLTKSRGETFSLIMDKMDLWIYFRFCEGNIYTIRKNETESCLTERGGEWLKHIYEFNRGSFIFSYVLLKKRESEENFTEIVLKSIKNNKILTVKVRSGLHFDLRNIYRIEM”, for which the “soluble on expression in E. coli” value is listed as “not soluble”. Then “MEISNRLKSISEVMDRCEIAADIGTDHAYLPIYLIKNNLCKRFIASDVNAGPLKKAINNINKYKLEDKIECRLGSGLNVLKLEEVDVVVIAGMGGNLIRDIIEERLDIFKKLKYAVLQPVQNPEILREYLIKRGFNIIEEQLCIDESKYYEIIKVCYDSKIEDKDDVYYEIGDKLIDMKHPLLKEYINYKIRKYDKIYKNISEESLNALSRKNELSIKIRKLKELLSCL”, with “not soluble”.

Consider “GPLGSPEFPGAFRTQKPSLNTVNVVGSSMGSGGVFTIDGKIKCVTAAHVLTGNSARVSGVGFNQMLDFDVKGDFAIADCPNWQGVAPKAQFCEDGWTGRAYWLTSSGVEPGVIGNGFAFCFTACGDAGSPVITEAGELVGVHTGSNKQGGGIVTRPSGQFCNVKPIKLSELSEFFAGPKVPLGDVKIGSHIIKDTCEVPSDLCALLAAKPELE”, for which the “soluble on expression in E. coli” value is “soluble”. Take “MSLSKTYVGSRVRQLRNERGFSQAALAQMLEISPSYLNQIEHDVRPLTVAVLLRITEVFGVDATFFASQDDTRLVAELREVTLDRDLDIAIDPHEVAEMVSAHPGLACAVVNLHRRYRITTAQLAAATEERFSDGSGRGSITMPHEEVRDYFYQRQNYLHALDTAAEDLTAQMRMHHGDLARELTRRLTEVHGVRINKRIDLGDTVLHRYDPATNTLEISSHLSPGQQVFKMAAELAYLEFGDLIDAMVTDGKFTSAESRTLARLGLANYFAAATVLPYRQFHDVAENFRYDVERLSAFYSVSYETIAHRLSTLQRPSMRGVPFTFVRVDRAGNMSKRQSATGFHFSSSGGTCPLWNVYETFANPGKILVQIAQMPDGRNYLWVARTVELRAARYGQPGKTFAIGLGCELRHAHRLVYSEGLDLSGDPNTAATPIGAGCRVCERDNCPQRAFPALGRALDLDEHRSTVSPYLVKQEGHHHHHH”: the “soluble on expression in E. coli” value is given as “soluble”. Then “MDNRSASLHSDIDTVLNNYDYDFAEVEIAVLGNGHINNTYKLTTPEVEFVLQQINHDVFPKTAELSSNAQKINLHLQRQKNIGNYPLSIPQQILSKTGETYSKVGTNYWRLMEFISNSYTLEEVESPEQAALVANAFAEFSCTLSDFPVEELAVIIEDFHDISFRMRQLNEAVENDLQDRLSSCQTLVNFCLDQQDFINHVIDISKKLPLHVTHNDTKINNLLFTEGDTPCAVIDLDTCMPGLLMHDFGDMVRTCCSNLAEDDTNIDAMIIKLDIFSALIQSYQNAFGTKMSALEKDSLIVGTKSVPFSLGTRFLTDYLNGDSYFQVSREKHNLDRAFNQIQLFILLCEAEPELIKLAMQALEHHHHHH”, with “not soluble”; and “MEAEGFPRLFHNFENVPEPKECKKVGSVPSYLTGTMLRNGPGMFTVGEEEYKHWFDGLGFMQRYHFEDGKMFYSARYLESEAYTKTVEAQRIVAGTFGTLSFPDPCKTIFSKYFSEFMNHSEKHDNSNVAFTPVGDSLYACTETPHMYRVDLDTLKTLEAADFSKFVAVHSCTAHQLYDENGDVYNIGSRFGPESAHVFTVTKNPKNQKSENDHSWEHTSKIGEIKASDPLYPTYMHSFGMSENYLVMFESPVRLHLQKYLLSEFVRATYHDCLEWHGDKDVSIFILNKKTGEQLPLTLKMNPFFTFHHANTFEKDGCLVMDYCRIENAGKFDTLLISNMKTGEFQYDAKFLPYLTRVIVPMSVSSSAKPGDNLLKSVPWASGCTSILQDDGSIRLTERRVCETSMEFPRYHWEKINMKEYRYVFGSTVFGRIDGNLAGVVKADLKFGNHLIWNRENPHQICGEPIFVPNPEGIEEDDGILIVPIMSSSEKQVPFVLILDAKTLEETARFEIPEARIPLGFHAFYKPKN”, with “not soluble”.

For the sequence “MTLNDKYPFTDEDQAIINSYKAVVDGVSALIGEHCEIVLHSLENIEHSAICIANGHNTNRQVGSPITDLALRSLRNMQSESVSKPYFTRAKGSVLMKSVTIAIRNKTQRIIGLLCININLDVPVSQFLQCFMLTEHTNETSSVNFANSVEDLVAQTIEKTIEEVNADRAVANNTKNRQIVLSLYEKGIFDIKDAINLVAERLDISRHTVYLYIRQIKQEQE”, the “soluble on expression in E. coli” value is reported as “not soluble”. Then “MGSDKIHHHHHHMEEITKIESIDQYDQLFGLETLHPLVNVIDFSKATKTVDYYRMNIGFYSLFLKDAKCGDLRYGRKYYDYQEGTVVCMAPGQVIGIDNRKQTPIRTKSIGLLFHPDLIRGTSLGQNIKHYSFFSYEVNEALHLSEQEREIVTDCIHKIQIELEHAIDKHSKQLIVRNIELLLDYCMRFYERQFITRNQANKDIIVKFEQLLDEYFQNQTALTEGLPSVKYFADKVCLSSNYFGDLIKKETGKTAQEYIQHRIIELAKERILEGSQTVSQIAYELGFQYPQHFSRLFKKNVGCTPNEYKQQN”, with “not soluble”; and “MKYIVAVNASPRSGWNTSQLVEAAAKGAKEAGATVDIIDLYKLEPFQGCISCFGCKLPRTFGRCVSKDGLSEVLDKIRKADGLILGSPNYLGNLTAGFRALYERLIFQSLTYNKERPNCNEHMIPVLLITTSNCDESIYDKIGYTSMLEGYKQMLERFVGPLEHHHHHH”, with “not soluble”. Then “MELQLAIDLLNKEEAAKLAQKVEEYVDIVEIGTPIVINEGLPAVQHLNENINNAKVLADLKIMDAADYEVSQAVKYGADIVTILGVAEDASIKAAVEEAHKHGKALLVDMIAVQNLEQRAKELDEMGADYIAVHTGYDLQAEGKSPLDSLRTVKSVIKNSKVAVAGGIKPDTIKDIVAEDPDLVIVGGGIANADDPVEAAKQCRVAIEG”, with “not soluble”; and “MIKKVIKRDGREKDFDILRIEHAIKKAEKSIEVNECWDDDALCDILMKIDETNLKKIEIEKVQDIVIDVLNKYNKNVAKAYSDYRKERTKIRQDKSNLMKIIDKIGVETDRDNANVGNNFSSKLLRIASESNKVHNLLK”, with “not soluble”. Then “MGSDKIHHHHHHMSGKIAFVTGATGLLGSNLCRALVSQGWQVKGLVRSLDKAKRFLGDSNIELIQGDIEDVPAFTQALKGVDVVFHTAAFFREYYQPGSDWQKMKRINVDTTIELLQAAEAQGVAKVVFTSSSGVIQTDPHQAATETAPYNKFAEQNLYFKTKILAEQEIYRFLNTSQIDVVMILPGWMMGPGDAAPTSAGQLVLDLLAGKLPGVINGGAALTDVRDVATVMVKAAEKGESGGRYIVAGPLTTMKEIALELEAISGVKAPRMEIPDGMAIAIAWFLEKFTGLTGGVNPMPLAGIQTLLEKAKLSSAKAERDLGATFRPLRETLKDTVLWYQSQGYV”, with “not soluble”; and “MSLRSQQSGILGVIVADIRNPYFTALIRAVEEVAYRAGMRVTLCNTDEDPEREALYLELMQEERITGLIFAPTRVTVGRMHELALDYPTVLVDRAGPGSRYDSVVLDNGAAMAELVAHLQAQGYRRIGGLFGSTSTTAAERRDGYLAAMRAQGLQPDYREVAPTAEAAIAELGAWLANDQRPEAIVTSNSLLLMGALKAARTAGLRLPQDLALAGFDNERWTDLVEPGITVVEQPVEDMGRAAMSLLLERLSNRQLPIRRLVMTGRCVVRGSTAEGHHHHHH”, with “soluble”. With “MTTINPTNYTLLKKQAASLIEDEHHMIAILSNMSALLNDNLDQINWVGFYLLEQNELILGPFQGHPACVHIPIGKGVCGTAVSERRTQIVADVHQFEGHIACDANSKSEIVVPIFKDDKIIGVLDIDAPITDRFDDNDKEHLEAIVKIIEKQLA”, the “soluble on expression in E. coli” value is recorded as “not soluble”. Then “MGSDKIHHHHHHMPTLTINQRLDALLPKLQDARLLSNRGIGNEIGFYIFDYDAEYEPLVQRYVDRLKLQLTSSPSGFASPSLSEQQDRAGSPIQLILLEIDLYKTILDILSERGVLKKAFELEATKGNAALAKTVAPLVRPDQVIAYIQKKLRGDEQLVIMTGVGASWPLLRSHSILNNLHPVLDKIPLVMFFPGSYDGHELRLFDTFKDDNYYRAFPLIPHQQHHL”, with “not soluble”; and “MSPAPVQVMGVLNVTDDSFSDGGCYLDLDDAVKHGLAMAAAGAGIVDVGGESSRPGATRVDPAVETSRVIPVVKELAAQGITVSIDTMRADVARAALQNGAQMVNDVSGGRADPAMGPLLAEADVPWVLMHWRAVSADTPHVPVRYGNVVAEVRADLLASVADAVAAGVDPARLVLDPGLGFAKTAQHNWAILHALPELVATGIPVLVGASRKRFLGALLAGPDGVMRPTDGRDTATAVISALAALHGAWGVRVHDVRASVDAIKVVEAWMGAERIERDG”, with “soluble”; and “MGSDKIHHHHHHMGVTCVSQMPVAEGKSVQQTVELLTRKLEMLGAEKQGTFCVDCETYHTAASTLGSQGQTGKLMYVMHNSEYPLSCFALFENGPCLIADTNFDVLMVKLKGFFQSAKASKIETRGTRYQYCDFLVKVGTVTMGPSARGISVEVEYGPCVVASDCWSLLLEFLQSFLGSHTPGAPAVFGNRHDAVYGPADTMVQYMELFNKIRKQQQVPVAGIR”, with “not soluble”. Consider “MGSDKIHHHHHHMKLEKILQDLEQNHNLRTLTPLKHENKFVYKQDHKLLNLVGNDYLYLASSKELKAEFLNTLKEQDLFFSSSSSRSLSGNFEIYEKLESFLKTKFKDKEILHFNSGYHLNISCIAALSSVSKTLFLTDKFIHASMIDGLRLGRADFFRFHHKDMNHLESLIQKHYENYENIIVLSEALFSMDGDFSDFKTLCELKRRYDKIKLYIDEAHSVGCFDEEGLGLVKKLALENEVDFLVFTFGKALASMGACIICDEKYKKFFINKARAFIYSTALPPINVAWTQFIFKKMPYFKKEREKLELLSTFFKSKLQEKNHIVLGDAYIICLLLGENKKALEISQKLQKAGFFAPAIKEPTVPKNTARIRFSLHAGLNTEELERIIELL”, for which the “soluble on expression in E. coli” value is on record as “not soluble”. Then “MSLDEVECSADHIARPILILKETRRLPWATGYAEVINAGKSTHNEDQASCEVLTVKKKAGAVTSTPNRNSSKRRSSLPNGEGLQLKENSESEGVSCHYWSLFDGHAGSGAAVVASRLLQHHITEQLQDIVDILKNSAVLPPTCLGEEPENTPANSRTLTRAASLRGGVGAPGSPSTPPTRFFTEKKIPHECLVIGALESAFKEMDLQIERERSSYNISGGCTALIVICLLGKLYVANAGDSRAIIIRNGEIIPMSSEFTPETERQRLQYLAFMQPHLLGNEFTHLEFPRRVQRKELGKKMLYRDFNMTGWAYKTIEDEDLKFPLIYGEGKKARVMATIGVTRGLGDHDLKVHDSNIYIKPFLSSAPEVRIYDLSKYDHGSDDVLILATDGLWDVLSNEEVAEAITQFLPNCDPDDPHRYTLAAQDLVMRARGVLKDRGWRISNDRLGSGDDISVYVIPLIHGNKLSEGHHHHHH”, with “soluble”. Then “MHSQQRPNPQMNRHPYGTPGSAPQMRRPGGFAGQPPQMHGPRMVAPPAAPLPKKKKYADKCIHPKIRELEPDAENYMALLASEQKLDSTLSRKKLDIQEALKRPSKVKKRLRIYISHTFIEEKQPEKDTDEASLPMWELRVEGRLLDEQPPAPAIPGQRPVPKRKFSSFFKSLVIELDKEMYGPDQHLVEWHRTPQTNETDGFQVKRAGDRPVKCRILLLLDNHPAKFKLHPRLAKVLGIATETRPKIIEALWQYIKTHGLQDPQERDIINCDTFLSQCFGVNRMRFMEVPNKLHQLLQQTDPLEFNHIIQRPKEGQEQVSTCYDIDVEMEDPVKQFMHTFVHSPGLANDIQTLDQKCYDIIEQINELKTRRDFYARFYTEPAEFIKSWVMSQNSDLKTMNELSGDLEAERFAESYVRPETEEGVQRYMFQKVNQKRHELEQSLGVRSN”, with “not soluble”.
